{"source": "patent US20240076689A1", "about": "“VIRAL VECTORS AND NUCLEIC ACIDS FOR REGULATED GENE THERAPY” (Boehringer Ingelheim International GmbH, priority 2020, published 2024)", "molecules": {"B1": {"name": "catalytically inactive K19 switch: control plasmid harboring a catalytically inactive, non-cleaving K19 switch (SEQ ID No. 45) (nucleic acid)", "chain": "GGCGCGTCCTGGATTCGTGGTAAAACATACCAGATTTCGATCTGGAGAGGTGAAGAATACGACCACCTACTACATCCAGCTGATGAGTCCCAAATAGGACGAGACGCGCT", "modifications": "the letters are possibly those of the target site"}, "B2": {"name": "K19: Tet-responsive aptazyme: tetracycline aptamer plus hammerhead ribozyme N79 (Beilstein et al. 2015), SEQ ID NO:9/10; tested in active-switch plasmids (nucleic acid)", "chain 1": "GGCGCGTCCTGGATTCGTGGTAAAACATACCAGATTTCGATCTGGAGAGGTGAAGAATACGACCACCTACTACATCCAGCTGATGAGTCCCAAATAGGACGAAACGCGCT", "chain 2": "GGCGCGUCCUGGAUUCGUGGUAAAACAUACCAGAUUUCGAUCUGGAGAGGUGAAGAAUACGACCACCUACUACAUCCAGCUGAUGAGUCCCAAAUAGGACGAAACGCGCU", "modifications": "chemistry not fully specified; one strand in two spellings; the letters are possibly those of the target site"}}, "key": {"[1]": {"experiment": "Tet plasma concentration in the mIL-12 time course study", "settings": "female, C57Bl/6, mouse, in vivo"}, "[2]": {"tested_on": "IL-12 and IFNγ plasma levels, body weight, liver enzymes", "experiment": "Dose-finding study to determine PK and safety of Tet-switch-controlled IL-12 (FIG. 18)", "settings": "30 mg/kg i.p. twice daily for 5 consecutive days"}, "[3]": {"settings": "four 100 mg/kg Tet doses in 8 h intervals"}, "[4]": {"tested_on": "eGFP expression in HEK293 cells", "experiment": "Tet-dependent eGFP expression from K19 constructs in transfected HEK293 cells", "settings": "HEK293, independent of Tet"}, "[5]": {"tested_on": "eGFP and sNLuc expression in HEK293 cells", "experiment": "K19 riboswitch kinetics in HEK293 cells (qPCR, fluorescence, Western blot, sNLuc)"}}, "data": [{"molecule": "CN(C)[C@@H]1C(O)=C(C(N)=O)C(=O)[C@@]2(O)C(O)=C3C(=O)c4c(O)cccc4[C@@](C)(O)[C@H]3C[C@@H]12", "note": "[Tet, tetracycline]", "values": [{"measurement": "concentration at 8 h", "setting": "[1]; 10 mg/kg", "value": 100, "unit": "nM"}, {"measurement": "concentration at 8 h", "setting": "[1]; 30 mg/kg", "value": 750, "unit": "nM"}, {"measurement": "tolerability of Tet (in words)", "setting": "[2]", "value": "well tolerated"}, {"measurement": "other signs of toxicity", "setting": "[3]", "value": "no other signs of toxicity were observed"}]}, {"molecule": "B1", "values": [{"measurement": "steady eGFP expression level, of constitutive signal", "setting": "[4]", "value": "about 90%"}]}, {"molecule": "B2", "values": [{"measurement": "onset of eGFP expression induction on the mRNA level after Tet addition", "setting": "[5]; HEK293, 50 μM Tet", "value": 15, "unit": "min"}, {"measurement": "onset of increase in direct eGFP fluorescence signal after Tet addition", "setting": "[5]; HEK293, 50 μM Tet", "value": "two"}, {"measurement": "time to full induction on the mRNA level", "setting": "[5]; HEK293, 50 μM Tet", "value": "four"}, {"measurement": "reversibility upon Tet retraction (in words)", "setting": "[5]; HEK293 previously grown in presence of Tet", "value": "relative decrease in sNLuc expression was observed"}, {"measurement": "Tet-induced sNLuc increase detected after addition", "setting": "[5]; HEK293 supernatant", "value": 2, "unit": "h"}, {"measurement": "time to saturation of sNLuc increase", "setting": "[5]; HEK293 supernatant", "value": "4 to 8", "unit": "h"}]}]}
